According to patent US20190144529A1 (UCB, published 2019):
Values joined by “and” are separate entries in the source; they are usually repeats but may differ in a detail not shown here. Identical values can stand only once. Like-named read-outs stand apart in the source and are kept apart here.

Key:
[1] = target: T1, mouse serum albumin (mouse, UniProt P07724 25-608); experiment: SPR
T1 construct: mature; Bought purified serum albumin; also called MSA; Mouse albumin
Experimental: (§1) For analysis at pH 7.0, 6.0, 5.5 and 5.0, a running buffer of 40 mM citric acid, 80 mM sodium phosphate 50 mM NaCl, 3 mM EDTA, 0.05% v/v P20 was used. The required pH was achieved by altering the ratio of citric acid to sodium phosphate. All experiments were performed at 25° C. The antibody samples were captured to the sensor chip surface using either a human F(ab′)₂-specific or human Fc-specific goat Fab (Jackson ImmunoResearch). Covalent immobilisation of the capture antibody was achieved by standard amine coupling chemistry to a level of 6000-7000 response units (RU).
(§2) Each assay cycle consisted of firstly capturing the antibody sample using a 1 min injection, before an association phase consisting of a 3 min injection of albumin, after which dissociation was monitored. After each cycle, the capture surface was regenerated with two 1 min injections of 40 mM HCl followed by 30 s of 5 mM NaOH. The flow rates used were 10 μl/min for capture, 30 μl/min for both the association and dissociation phases, and 10 μl/min for regeneration. A blank flow-cell was used for reference subtraction and buffer-blank injections were included to subtract instrument noise and drift.

[2] = target: T2, rat serum albumin (rat, UniProt P02770 25-608); experiment: SPR
T2 construct: mature; Bought purified serum albumin; also called RSA; Rat albumin
Experimental: as §1, §2

[3] = target: T3, rabbit serum albumin (rabbit, UniProt P49065 25-608); experiment: SPR
T3 construct: mature; Bought purified serum albumin; also called RbSA; Rabbit albumin
Experimental: as §1, §2

[4] = target: T4, human serum albumin (human, UniProt P02768 25-609); experiment: SPR at pH 5.0
T4 construct: mature; Bought purified serum albumin; also called HSA; Human albumin
Experimental: as §1, §2

[5] = target: T4, human serum albumin; experiment: SPR at pH 5.5
[6] = target: T4, human serum albumin; experiment: SPR at pH 6.0
Experimental: as §1, §2

[7] = target: T4, human serum albumin; experiment: SPR at pH 7.0
Experimental: as §1, §2

[8] = target: T4, human serum albumin; experiment: SPR, Fab captured, HSA
Experimental: as §1, §2

[9] = target: T4, human serum albumin; experiment: SPR, Fab captured, albumin titrated
Experimental: as §1, §2

[10] = target: T1, mouse serum albumin; experiment: SPR, Fab captured, albumin titrated
Experimental: as §1, §2

[11] = target: T2, rat serum albumin; experiment: SPR, Fab captured, albumin titrated
Experimental: as §1, §2

[12] = target: T5, cynomolgus serum albumin (cynomolgus, UniProt A2V9Z4 25-608); experiment: SPR, Fab captured, albumin titrated
T5 construct: mature; Bought purified serum albumin; also called CSA; Cynomolgus albumin
Experimental: as §1, §2

[13] = target: T3, rabbit serum albumin; experiment: SPR, Fab captured, albumin titrated
Experimental: as §1, §2

[14] = target: T6, bovine serum albumin (bovine, UniProt P02769 25-607); experiment: SPR, Fab captured, albumin titrated
T6 construct: mature; Bought purified serum albumin; also called BSA; Bovine albumin
Experimental: as §1, §2

[15] = target: T4, human serum albumin; experiment: SPR, Fab captured, albumin titrated; remark: listed apart in the source
Experimental: as §1, §2

[16] = target: T1, mouse serum albumin; experiment: SPR, Fab captured, albumin titrated; remark: listed apart in the source
Experimental: as §1, §2

[17] = target: T4, human serum albumin; experiment: SPR, Fab captured; albumin taken as HSA
Experimental: as §2

[18] = target: T4, human serum albumin; experiment: SPR, Fab captured; albumin taken as HSA; remark: listed apart in the source
Experimental: as §2

[19] = target: T4, human serum albumin; experiment: SPR, Fab captured; albumin taken as HSA; remark: listed apart in the source
Experimental: as §2

fold weaker affinity for MSA than for HSA [1]: 1.2 fold
fold lower affinity for RSA than for HSA [2]: ~10 fold
fold reduction in association rate for RbSA against HSA [3]: 18 fold
Kd [4]: 7.1 nM
Kd [5]: 10.7 nM
Kd [6]: 12.5 nM
Kd [7]: 13.3 nM
Kd [8]: 1.23 nM
koff [8]: 0.000172 s⁻¹
kon [8]: 139000 M⁻¹ s⁻¹
Kd [9]: 4.6 nM
koff [9]: 0.00041 s⁻¹
kon [9]: 90000 M⁻¹ s⁻¹
Kd [10]: 7.1 nM
koff [10]: 0.00034 s⁻¹
kon [10]: 48000 M⁻¹ s⁻¹
Kd [11]: 54 nM
koff [11]: 0.0013 s⁻¹
kon [11]: 24000 M⁻¹ s⁻¹
Kd [12]: 3.3 nM
koff [12]: 0.00035 s⁻¹
kon [12]: 100000 M⁻¹ s⁻¹
Kd [13]: 162 nM
koff [13]: 0.00029 s⁻¹
kon [13]: 2000 M⁻¹ s⁻¹
binding result [14]: no binding
Kd [15]: 1.8 nM
koff [15]: 0.0004 s⁻¹
kon [15]: 220000 M⁻¹ s⁻¹
Kd [16]: 2.2 nM
koff [16]: 0.00068 s⁻¹
kon [16]: 310000 M⁻¹ s⁻¹
Kd [17]: 2.14 nM and 2.51 nM
koff [17]: 0.000123 s⁻¹ and 0.00014 s⁻¹
kon [17]: 57500 M⁻¹ s⁻¹ and 56000 M⁻¹ s⁻¹
Kd [18]: 2.72 nM and 2.7 nM
koff [18]: 0.000161 s⁻¹ and 0.000158 s⁻¹
kon [18]: 59100 M⁻¹ s⁻¹ and 58600 M⁻¹ s⁻¹
Kd [19]: 2.97 nM and 3.8 nM
koff [19]: 0.000167 s⁻¹ and 0.000211 s⁻¹
kon [19]: 56200 M⁻¹ s⁻¹ and 55700 M⁻¹ s⁻¹
B1: CA645 gL4gH5 Fab (Fab, V domains shown)
VH: EVQLLESGGGLVQPGGSLRLSCAVSGIDLSNYAINWVRQAPGKGLEWIGIIWASGTTFYATWAKGRFTISRDNSKNTVYLQMNSLRAEDTAVYYCARTVPGYSTAPYFDLWGQGTLVTVSS
VL: DIQMTQSPSSVSASVGDRVTITCQSSPSVWSNFLSWYQQKPGKAPKLLIYEASKLTSGVPSRFSGSGSGTDFTLTISSLQPEDFATYYCGGGYSSISDTTFGGGTKVEIK
notes: Humanized Fab: human gamma1 CH1, human kappa constant region (Km3); parent of all mutants; also called CA645 Fab; Fab_645
